Laboratory results taken from patent US9555076B2, “Neuregulin based methods and compositions for treating cardiovascular diseases” (Zensun (Shanghai) Science & Technology, Co., Ltd., priority 2002, dated 2017).
Marks after values point to notes of the source that are not given here.

Tested on: acute myocardial injury caused by viral (Coxsackie B3) infection in mice
Assay: Survival of mice infected with Coxsackie B3 virus
Format: in vivo, BALB/C mice
Conditions: mice n = 20
Description: 0.2 ml of 100×TCID50 CVB3 provided by Zhong Shan Hospital affiliated to Fudan University was injected intra-abdominally and established myocarditis model. Within the following week, the mouse manifested pilo-erection, depilation, emaciation, dullness and death, about half of the tested animals died at the 8th day.
Intravenous injection of the testing drug into the tail vein was carried out the same day of intra-abdominal viral infection in mice, the injection was performed for consecutive 5 days, animal survival rate was monitored, after completion of the experiment, echocardiograph, myocardial pathologic examination, serum troponin determination were carried out.
The death status of model animals in various testing drug group was monitored.
• Normal mice control group, model group and testing drug group were set up; • Normal mice control group (n=10); • Model group (n=20): Prepared buffer solution was injected; • Testing drug group (n=20): […] courses with 20 animals assigned for each group; • Placebo control group (n=20): Intra-abdominal injection of non-CVB3 freeze-thaw cellular supernatant, 0.2 ml/animal. 10.2 Dosage Set Up, Preparation of Testing Drug, Route of Drug Administration, Times of Drug Administration, Concentration and Volume of the Testing Drug • rhNRG-1β was diluted with preparation buffer solution (10 mM PB, 0.2% human serum albumin, 5% mannitol to needed concentration; • Three drug administration groups were set up, intravenous injection for consecutive 3-day, 5-day and 7-day, drug volume for each dose was 0.2 ml/animal; • Drug administration of the model group was intravenous injection into the tail vein of mice, once every day (qd), for consecutive 7 days, drug volume for each dose was 0.2 ml/animal. 7.3 Method of the Experiment 7.3.1 Set Up of Acute Viral Myocariditis Animal Model in Mice

B1: rhNRG-1 β: Recombinant human neuregulin fragment of 61 amino acid (SEQ ID NO:4), 3 disulfide bonds, expressed in E. coli (protein, listed as Homo sapiens)
chain: SHLVKCAEKEKTFCVNGGECFMVKDLSNPSRYLCKCPNEFTGDRCQNYVMASFYKAEELYQ
modifications: disulfide (positions not given here)
Numbers of survival animals (5 μg/kg (so in the source) iv qd × 5, 1st day, (I)): 20 | Numbers of survival animals (5 μg/kg (so in the source) iv qd × 5, 2nd day, (I)): 20 | Numbers of survival animals (5 μg/kg (so in the source) iv qd × 5, 3rd day, (I)): 20 | Numbers of survival animals (5 μg/kg (so in the source) iv qd × 5, 4th day, (I)): 19 | Numbers of survival animals (5 μg/kg (so in the source) iv qd × 5, 5th day, (I)): 18 | Numbers of survival animals (5 μg/kg (so in the source) iv qd × 5, 6th day, (I)): 15 | Numbers of survival animals (5 μg/kg (so in the source) iv qd × 5, 7th day, (I)): 13 | Numbers of survival animals (5 μg/kg (so in the source) iv qd × 5, killed, (I)): 10 | Numbers of survival animals (7.5 μg/kg iv qd × 5, 1st day, (II)): 20 | Numbers of survival animals (7.5 μg/kg iv qd × 5, 2nd day, (II)): 20 | Numbers of survival animals (7.5 μg/kg iv qd × 5, 3rd day, (II)): 20 | Numbers of survival animals (7.5 μg/kg iv qd × 5, 4th day, (II)): 18 | Numbers of survival animals (7.5 μg/kg iv qd × 5, 5th day, (II)): 17 | Numbers of survival animals (7.5 μg/kg iv qd × 5, 6th day, (II)): 14 | Numbers of survival animals (7.5 μg/kg iv qd × 5, 7th day, (II)): 11 | Numbers of survival animals (7.5 μg/kg iv qd × 5, killed, (II)): 10 | Numbers of survival animals (15 μg/kg iv qd × 5, 1st day, (I)): 20 | Numbers of survival animals (15 μg/kg iv qd × 5, 1st day, (II)): 20 | Numbers of survival animals (15 μg/kg iv qd × 5, 2nd day, (I)): 20 | Numbers of survival animals (15 μg/kg iv qd × 5, 2nd day, (II)): 20 | Numbers of survival animals (15 μg/kg iv qd × 5, 3rd day, (I)): 20 | Numbers of survival animals (15 μg/kg iv qd × 5, 3rd day, (II)): 20 | Numbers of survival animals (15 μg/kg iv qd × 5, 4th day, (I)): 20 | Numbers of survival animals (15 μg/kg iv qd × 5, 4th day, (II)): 19 | Numbers of survival animals (15 μg/kg iv qd × 5, 5th day, (I)): 19 | Numbers of survival animals (15 μg/kg iv qd × 5, 5th day, (II)): 18 | Numbers of survival animals (15 μg/kg iv qd × 5, 6th day, (I)): 17 | Numbers of survival animals (15 μg/kg iv qd × 5, 6th day, (II)): 16 | Numbers of survival animals (15 μg/kg iv qd × 5, 7th day, (I)): 14 | Numbers of survival animals (15 μg/kg iv qd × 5, 7th day, (II)): 13 | Numbers of survival animals (15 μg/kg iv qd × 5, killed, (I)): 13 | Numbers of survival animals (15 μg/kg iv qd × 5, killed, (II)): 13 | Number of survival animal (30 μg/kg iv qd × 3, 1st day, (I)): 20 | Number of survival animals (30 μg/kg iv qd × 3, 1st day, (II)): 20 | Number of survival animal (30 μg/kg iv qd × 3, 2nd day, (I)): 20 | Number of survival animals (30 μg/kg iv qd × 3, 2nd day, (II)): 20 | Number of survival animal (30 μg/kg iv qd × 3, 3rd day, (I)): 20 | Number of survival animals (30 μg/kg iv qd × 3, 3rd day, (II)): 20 | Number of survival animal (30 μg/kg iv qd × 3, 4th day, (I)): 19 | Number of survival animals (30 μg/kg iv qd × 3, 4th day, (II)): 20 | Number of survival animal (30 μg/kg iv qd × 3, 5th day, (I)): 18 | Number of survival animals (30 μg/kg iv qd × 3, 5th day, (II)): 19 | Number of survival animal (30 μg/kg iv qd × 3, 6th day, (I)): 16 | Number of survival animals (30 μg/kg iv qd × 3, 6th day, (II)): 16 | Number of survival animal (30 μg/kg iv qd × 3, 7th day, (I)): 14 | Number of survival animals (30 μg/kg iv qd × 3, 7th day, (II)): 15 | Number of survival animal (30 μg/kg iv qd × 3, killed, (I)): 13 | Number of survival animals (30 μg/kg iv qd × 3, killed, (II)): 15 | Numbers of survival animals (30 μg/kg iv qd × 5, 1st day, (I)): 20 | Numbers of survival animals (30 μg/kg iv qd × 5, 1st day, (II)): 20 | Number of survival animal (30 μg/kg iv qd × 5, 1st day, Example 5 (I)): 20 | Number of survival animals (30 μg/kg iv qd × 5, 1st day, Example 5 (II)): 20 | Numbers of survival animals (30 μg/kg iv qd × 5, 2nd day, (I)): 20 | Numbers of survival animals (30 μg/kg iv qd × 5, 2nd day, (II)): 20 | Number of survival animal (30 μg/kg iv qd × 5, 2nd day, Example 5 (I)): 20 | Number of survival animals (30 μg/kg iv qd × 5, 2nd day, Example 5 (II)): 20 | Numbers of survival animals (30 μg/kg iv qd × 5, 3rd day, (I)): 20 | Numbers of survival animals (30 μg/kg iv qd × 5, 3rd day, (II)): 20 | Number of survival animal (30 μg/kg iv qd × 5, 3rd day, Example 5 (I)): 20 | Number of survival animals (30 μg/kg iv qd × 5, 3rd day, Example 5 (II)): 20 | Numbers of survival animals (30 μg/kg iv qd × 5, 4th day, (I)): 20 | Numbers of survival animals (30 μg/kg iv qd × 5, 4th day, (II)): 20 | Number of survival animal (30 μg/kg iv qd × 5, 4th day, Example 5 (I)): 20 | Number of survival animals (30 μg/kg iv qd × 5, 4th day, Example 5 (II)): 20 | Numbers of survival animals (30 μg/kg iv qd × 5, 5th day, (I)): 20 | Numbers of survival animals (30 μg/kg iv qd × 5, 5th day, (II)): 19 | Number of survival animal (30 μg/kg iv qd × 5, 5th day, Example 5 (I)): 19 | Number of survival animals (30 μg/kg iv qd × 5, 5th day, Example 5 (II)): 19 | Numbers of survival animals (30 μg/kg iv qd × 5, 6th day, (I)): 18 | Numbers of survival animals (30 μg/kg iv qd × 5, 6th day, (II)): 18 | Number of survival animal (30 μg/kg iv qd × 5, 6th day, Example 5 (I)): 19 | Number of survival animals (30 μg/kg iv qd × 5, 6th day, Example 5 (II)): 19 | Numbers of survival animals (30 μg/kg iv qd × 5, 7th day, (I)): 17 | Numbers of survival animals (30 μg/kg iv qd × 5, 7th day, (II)): 17 | Number of survival animal (30 μg/kg iv qd × 5, 7th day, Example 5 (I)): 18 | Number of survival animals (30 μg/kg iv qd × 5, 7th day, Example 5 (II)): 18 | Numbers of survival animals (30 μg/kg iv qd × 5, killed, (I)): 16* | Numbers of survival animals (30 μg/kg iv qd × 5, killed, (II)): 17* | Number of survival animal (30 μg/kg iv qd × 5, killed, Example 5 (I)): 17* | Number of survival animals (30 μg/kg iv qd × 5, killed, Example 5 (II)): 18* | Number of survival animal (30 μg/kg iv qd × 7, 1st day, (I)): 20 | Number of survival animals (30 μg/kg iv qd × 7, 1st day, (II)): 20 | Number of survival animal (30 μg/kg iv qd × 7, 2nd day, (I)): 20 | Number of survival animals (30 μg/kg iv qd × 7, 2nd day, (II)): 20 | Number of survival animal (30 μg/kg iv qd × 7, 3rd day, (I)): 20 | Number of survival animals (30 μg/kg iv qd × 7, 3rd day, (II)): 20 | Number of survival animal (30 μg/kg iv qd × 7, 4th day, (I)): 20 | Number of survival animals (30 μg/kg iv qd × 7, 4th day, (II)): 20 | Number of survival animal (30 μg/kg iv qd × 7, 5th day, (I)): 20 | Number of survival animals (30 μg/kg iv qd × 7, 5th day, (II)): 20 | Number of survival animal (30 μg/kg iv qd × 7, 6th day, (I)): 19 | Number of survival animals (30 μg/kg iv qd × 7, 6th day, (II)): 19 | Number of survival animal (30 μg/kg iv qd × 7, 7th day, (I)): 19
